The results in this text go back to PMC12136796.

Among the targets are mGFP-PICK1 5K-E (mouse) (UniProt Q62083); mCherry-PICK1 WT (mouse) (UniProt Q62083); mGFP-KIBRA ΔC2 (mouse) (UniProt Q5SXA9); mGFP-KIBRA ΔCCL (mouse) (UniProt Q5SXA9); mGFP-KIBRA ΔαBR (mouse) (UniProt Q5SXA9); mCherry-KIBRA WT (mouse) (UniProt Q5SXA9).
What all share (test): co-IP

Sequence of mCherry-PICK1 WT (mouse) (Q62083 whole entry): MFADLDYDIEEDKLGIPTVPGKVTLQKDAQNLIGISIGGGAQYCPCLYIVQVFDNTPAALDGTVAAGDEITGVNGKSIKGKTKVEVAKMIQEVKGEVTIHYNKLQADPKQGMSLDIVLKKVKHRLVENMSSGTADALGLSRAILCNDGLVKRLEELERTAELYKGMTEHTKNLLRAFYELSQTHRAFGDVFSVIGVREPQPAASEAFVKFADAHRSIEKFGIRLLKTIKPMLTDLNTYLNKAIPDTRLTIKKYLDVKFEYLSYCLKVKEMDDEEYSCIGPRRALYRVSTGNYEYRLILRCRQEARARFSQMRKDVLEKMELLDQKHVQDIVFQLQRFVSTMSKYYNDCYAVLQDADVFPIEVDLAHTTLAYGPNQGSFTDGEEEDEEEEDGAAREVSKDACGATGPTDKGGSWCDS
Sequence of mGFP-PICK1 5K-E (mouse) (Q62083 whole entry): as above
Sequence of mCherry-KIBRA WT (mouse) (Q5SXA9 whole entry): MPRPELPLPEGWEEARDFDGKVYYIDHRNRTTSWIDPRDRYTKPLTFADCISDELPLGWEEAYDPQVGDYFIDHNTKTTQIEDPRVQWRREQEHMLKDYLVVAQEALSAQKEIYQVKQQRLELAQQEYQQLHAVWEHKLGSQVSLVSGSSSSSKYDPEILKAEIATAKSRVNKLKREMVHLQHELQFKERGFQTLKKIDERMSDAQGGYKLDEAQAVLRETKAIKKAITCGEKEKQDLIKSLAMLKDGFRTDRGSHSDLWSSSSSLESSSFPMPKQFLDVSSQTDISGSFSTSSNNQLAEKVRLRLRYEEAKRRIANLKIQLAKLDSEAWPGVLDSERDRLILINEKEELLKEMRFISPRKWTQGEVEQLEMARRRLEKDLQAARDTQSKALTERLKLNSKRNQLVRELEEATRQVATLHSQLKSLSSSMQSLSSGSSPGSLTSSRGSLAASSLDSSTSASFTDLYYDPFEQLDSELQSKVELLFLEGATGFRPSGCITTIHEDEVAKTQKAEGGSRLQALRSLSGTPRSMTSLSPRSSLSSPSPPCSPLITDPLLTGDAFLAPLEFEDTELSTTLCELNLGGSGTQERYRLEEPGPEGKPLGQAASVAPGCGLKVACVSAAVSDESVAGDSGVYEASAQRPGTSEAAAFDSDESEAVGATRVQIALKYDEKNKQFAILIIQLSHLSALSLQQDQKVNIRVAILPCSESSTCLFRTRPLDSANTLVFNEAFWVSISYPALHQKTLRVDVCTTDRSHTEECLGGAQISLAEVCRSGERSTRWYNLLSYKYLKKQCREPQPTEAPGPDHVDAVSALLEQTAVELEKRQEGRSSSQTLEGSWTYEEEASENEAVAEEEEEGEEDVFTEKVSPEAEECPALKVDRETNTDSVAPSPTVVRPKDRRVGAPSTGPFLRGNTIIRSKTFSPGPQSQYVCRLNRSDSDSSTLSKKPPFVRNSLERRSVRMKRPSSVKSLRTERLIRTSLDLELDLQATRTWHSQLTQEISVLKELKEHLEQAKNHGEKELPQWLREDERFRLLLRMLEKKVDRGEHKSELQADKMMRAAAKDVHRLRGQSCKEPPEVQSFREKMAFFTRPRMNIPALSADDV
Sequence of mGFP-KIBRA ΔαBR (Q5SXA9 whole entry, stated change not applied): as the sequence (Q5SXA9 whole entry) above
Sequence of mGFP-KIBRA ΔC2 (Q5SXA9 whole entry, stated change not applied): as the sequence (Q5SXA9 whole entry) above
Sequence of mGFP-KIBRA ΔCCL (Q5SXA9 whole entry, stated change not applied): as the sequence (Q5SXA9 whole entry) above
Sequence of mGFP-PICK1 KD-AA (Q62083 whole entry): as the sequence (Q62083 whole entry) above
Sequence of mGFP-PICK1 BAR (domain or fragment) (Q62083 whole entry, the tested form may be a part): as the sequence (Q62083 whole entry) above
Sequence of Myc-GluA2 (P19491 22-883): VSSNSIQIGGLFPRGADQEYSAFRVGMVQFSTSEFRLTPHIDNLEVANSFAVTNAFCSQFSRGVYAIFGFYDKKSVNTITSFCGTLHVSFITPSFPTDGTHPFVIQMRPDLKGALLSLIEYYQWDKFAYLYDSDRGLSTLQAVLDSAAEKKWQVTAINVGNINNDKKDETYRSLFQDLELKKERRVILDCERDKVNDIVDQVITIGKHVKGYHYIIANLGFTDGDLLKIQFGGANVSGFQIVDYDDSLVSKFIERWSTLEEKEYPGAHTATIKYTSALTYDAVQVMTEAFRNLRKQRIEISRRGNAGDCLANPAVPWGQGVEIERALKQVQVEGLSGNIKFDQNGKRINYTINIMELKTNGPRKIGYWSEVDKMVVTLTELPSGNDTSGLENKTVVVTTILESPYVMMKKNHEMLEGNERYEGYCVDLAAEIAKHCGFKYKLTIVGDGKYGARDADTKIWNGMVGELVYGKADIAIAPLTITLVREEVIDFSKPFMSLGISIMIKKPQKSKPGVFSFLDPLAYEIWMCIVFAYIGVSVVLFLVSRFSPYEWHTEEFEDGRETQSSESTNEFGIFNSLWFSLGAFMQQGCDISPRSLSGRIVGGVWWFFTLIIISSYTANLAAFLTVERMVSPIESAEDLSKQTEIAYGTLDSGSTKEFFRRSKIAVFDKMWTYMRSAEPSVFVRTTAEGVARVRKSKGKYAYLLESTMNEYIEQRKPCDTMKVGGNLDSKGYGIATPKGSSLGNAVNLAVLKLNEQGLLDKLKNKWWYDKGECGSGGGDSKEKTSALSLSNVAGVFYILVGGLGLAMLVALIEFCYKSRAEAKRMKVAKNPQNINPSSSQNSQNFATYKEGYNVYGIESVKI
Sequence of mCherry-KIBRA WT (Q5SXA9 whole entry): as the sequence (Q5SXA9 whole entry) above
Sequence of mGFP-KIBRA ΔWW (Q5SXA9 whole entry, stated change not applied): as the sequence (Q5SXA9 whole entry) above

Turning to “Myc-GluA2 (from UniProt P19491 22-883) (receptor)”, the co-precipitated GluA2 relative to PICK1 WT (mCherry-KIBRA co-expressed) with mGFP-PICK1 5K-E (mouse) is 0.27 fold of WT.

Turning to “mCherry-KIBRA WT (from UniProt Q5SXA9 1-1104) (natural protein)”, in the test with mGFP-PICK1 5K-E (mouse), the co-precipitated KIBRA relative to PICK1 WT was 0.63 fold of WT.

With “mGFP-KIBRA ΔC2 (from UniProt Q5SXA9 1-1104) (natural protein)”, the co-precipitated KIBRA relative to KIBRA WT in the test with mCherry-PICK1 WT (mouse) is 1.29 fold of WT. The co-precipitated mGFP-KIBRA relative to KIBRA WT in the test with mGFP-KIBRA ΔC2 (mouse) is 1.36 fold of WT.

For the substance “mGFP-KIBRA ΔCCL (from UniProt Q5SXA9 1-1104) (natural protein)”, in the test with mGFP-KIBRA ΔCCL (mouse), the co-precipitated mGFP-KIBRA relative to KIBRA WT was 1.6 fold of WT. The co-precipitated KIBRA relative to KIBRA WT in the test with mCherry-PICK1 WT (mouse) was 1.48 fold of WT.

Take “mGFP-KIBRA ΔWW (from UniProt Q5SXA9 1-1104) (natural protein)”: in the test with mCherry-PICK1 WT (mouse), the co-precipitated KIBRA relative to KIBRA WT was 1.79 fold of WT.

With “mGFP-KIBRA ΔαBR (from UniProt Q5SXA9 1-1104) (natural protein)”, the co-precipitated KIBRA relative to KIBRA WT in the test with mCherry-PICK1 WT (mouse) is 1.94 fold of WT. Also, the co-precipitated mGFP-KIBRA relative to KIBRA WT in the test with mGFP-KIBRA ΔαBR (mouse) was 1.55 fold of WT.

For mGFP-PICK1 BAR (domain or fragment), the co-precipitated PICK1 relative to PICK1 WT with mCherry-KIBRA WT (mouse) was 1.62 fold of WT.

With “mGFP-PICK1 KD-AA (from UniProt Q62083 1-416) (natural protein)”, in the test with mCherry-KIBRA WT (mouse), the co-precipitated PICK1 relative to PICK1 WT is 0.81 fold of WT.
